From the DeepSol protein solubility set

Experiment: soluble on expression in E. coli; label from the status in PepcDB or PDB records

| Sequence | soluble on expression in E. coli |
| --- | --- |
| MGETKADFRDMSRIPKVREGFYATNNQFQKAGPKGFVQVKVLENDNLYVRVDLPGVPDDAVRYRVDAVRQKVVFFSGETLNNGKEGVRQYSGTAGLGCDCCEITGVDAKMKDGVLRMILTRVKVVSKAQDNNNNKCTLTVPPFTGQSGIRLEDHPCLVSGRKGALIGVTKAGGGAHFAVDMPGVSPDDVEVYADEKEIRFKAEIKDVYEHDESGRTYLGSVQSPFPALISNNTIAWDAEFGVLRIAVIPPDDMTTINNKRNPIE | soluble |
| MTLDECIRLAWKQNPSVRNSVIDIKEARADYMAAVGAFLPRAAVNAETGKRFGRSIDPDTNGYTNETFEEGTVGLDMTLSLFEGFSRIHQVRFRKMNKERSEWALKNRQNELAYQVTDAYYKLILERKLLNLALEQSRLSERYLKQTEAFVELGLKSASDLQEVKARREGDIYRYKSRENTCRLALLHLEQLMNFQPGDTLVIQDTIVEANQLPLLSVPSTETLYAQSLEILPVMRMIDLKRKAARKEYAMAGGTFSPSVYARFTVGSNFYNTVFSARQLRDNIGKYVGIGISFPLLSGLERLTHQRKQKLNLYRLKNEEELEKQQLYTDIEQTLLSLHAGFSEHQQALQQLEAEALVLKESERKWEEGLISVFQLMEARNRFISAKAELVRVRLQVEMMRKLEKYYREGTFL | not soluble |
| KLSNGMNGSEAAVHEVPEYTGPLGTSGEEPAPTVEKPEYTGPLGTSGEEPAPTVEKPEYTGPLGTAGEEAAPTVEKPEFTGGVNGTEPAVHEIAEYKGSDSLVTLTTKEDYTYKAPLAQQALPETGNKESDLLASLGLTAFFLGLFTLGKKREQ | not soluble |
| MAHHHHHHMESLDERWNNQVDNFHIKVNKLRCDMNEYKKGCYNTYNLRNNKNDVFPHLQNNNMKRRELINMNNNYEIKNYLKKPHNQTYILKDNKYVNVDDITFPVSKNISNKVIKTNDEKILENKCCFKLNVRNKRKNEKVIKINEKRWLIATKHVKIERVNKNGVEQSEEKNKKDKNRYIYLEGEEGNLHLYPMYSDSEVGFENISHIEDESLSKVKKENQDDDDIMTTKHLAQWSSDIVHKYLEEAIEKSKSIFQNCNMESRQEEIFKRIKL | not soluble |
| MAKKPSKKKVKRQVASGRAYIHASYNNTIVTITDPDGNPITWSSGGVIGYKGSRKGTPYAAQLAALDAAKKAMAYGMQSVDVIVRGTGAGREQAIRALQASGLQVKSIVDDTPVPHNGCRPKKKFRKAS | soluble |
| MGSDKIHHHHHHMKIGVLSQFPELYSTRRLVEACESRGHEAWVINPINCYMNINSVKPSIHLEGEEVPMFDAIIPRIHASVTFYGCAVVRQFEMMGVFAANDSISIARSRDKLRALQLLSRKGIGMPVTGFANKPNNIPDLINMVGGAPLVIKLLEGTQGIGVVLAETRKAAESVIEAFLGLKANIMVQEYIKEANGSDIRCFVVGDKVVAAMRRQGPEGDFRSNLHLGGSAEPVKITPQERKSAVAAAKAMGLVVAGVDILRSARGPLVLEVNSAPGIEGIEQATGIKVAEPIVEYIEKVVAARRANHQVIA | not soluble |
| MKNADKNFEKEKYIDSLRDYLAVLDKVDDESLKAEICYKVSQIYHYLQKDDPQNALKYAQMSMDLHAKHGEDDLTVLDLINIASILMDSGDKKGALQKLDEAIQKAKDMGDDEIQLIAMSSKASMIAEDNREEALKLYQEVMRKSQEIGDIEDYFDAVQGIVNMVREEDEHRAFEMIMKAIEELENYISGIKSKKEKKDVADSFSYLYDTASDIAMSIGDVDQAMEIAKRLQKIVS | not soluble |
| MLAQRGTFAECGAEVLAVAMSPGRRHITKPVCEITFGLRESNVLTSTMVLNAGAGVPHDAPASGGTLFGLTDKEVEQMSNFKLLVIHLGGVKNHLIYKARLILRNVNKPCIIICESPVDCEDFAKIGVKTSKVMPSEEDVKTEGHIVDIVSGVIRGETISQEKLDEIIRKVKLALGDALEHHHHHH | soluble |
| MGSDKIHHHHHHMPPAKTQEFDPSRIKEPNSPSVITKAATLMDVLRTEGPTNSARLAEVLGEPISSVYRMLHTLTAIGWVEQDGKRGSYRVGLAMLTLAELQLRHMDLRKIAALTMRKIHALTGETTFLCVRHGIRAVCIERVDGDRVNSRVLQLGTSLPLHVGAAPRALLAFEGRRAWETYATNLGFEGHNWSKGPSRGELFQHLDEDRDKGFCLVDNEITPGIAAVGAPIYNHRGEVVASLSMSGLRDGILSDTTDYSAVELILQGSAEISQALGATIEHNGGNQKLPQVTPLSIVV | not soluble |
| MGSDKIHHHHHHMRLDSISIANFRNHTLLEFEPGHSITNIYGRNGSGKTSILEAIHYCALTRGFSGNNDREYLKFGEELFTIRSSFTSGQGIATKVSITYSPKREKRILVNEQELQTFSSHIGTIPCVTFTPREMVIINGAPAERRRFIDTAICQYDRKYLSDLLLYRRILQQRNALLSSEQDPRVIDSALDVLTDQLVAIATEIVLVRKRFIEHFTSMLGGVYQWIPEGAEPSILYQSSLGHHENLYEKDKIQQVFRERFETLKQQELQRRQTLAGPHRDDLQFYLNKREIRKYASQGQQRAFLVAMKMTLQGYLYEASGEIPITLLDDLFSELDEVVSGTMVETLATKGQVIITSTEKKKGKGISFFSVDDYKSSKEP | not soluble |
| MTELKNDRYLRALLRQPVDVTPVWMMRQAGRYLPEYKATRAQAGDFMSLCKNAELACEVTLQPLRRYPLDAAILFSDILTVPDAMGLGLYFEAGEGPRFTSPVTCKADVDKLPIPDPEDELGYVMNAVRTIRHELKGEVPLIGFSGSPWTLATYMVEGGSSKAFTVIKKMMYADPQALHALLDKLAKSVTLYLNAQIKAGAQAVMIFDTWGGVLTGRDYQQFSLYYMHKIVDGLLRENDGRRVPVTLFTKGGGQWLEAMAETGCDALGLDWTTDIADARRRVGNKVALQGNMDPSMLYAPPARIEEEVATILAGFGHGEGHVFNLGHGIHQDVPPEHAGVFVEAVHRLSEQYHR | soluble |
| MLNRNRNVNKQNGHQKQNGAQKSELRGKNAPPYLERETCLGRNDIFVVEKMIAGGGFGQVYRARNTETQEEVAVKVERATTNDSQRMILESKVLDDMLGSKHFPNVYYIGPYHSYNFIVMQMLGKNIGDIRKMMPNKKISILSSVRIGIQIIEALSLLHSKGWLHRDLKPTNCCLGLDEKRKTVYLVDFGMSRKFRNDNGSLRESRTYCGFRGTTRYCSYRMHDRREQGPVDDLWCLYYSLGELIEGCLPWRDIESADEMAHVKKILKHEDIFHSMPSKFASFGRNLRRLRPANTPDYTKFQNILAYCVKFVDDNAEFEWDVMDY | not soluble |
| MDPYQQGGRGGGFPARGGRGGGHGGGYPQEGYGAAAGGYGGYDPYNPYGAAGGYGMYPGQGYPPQEMTSPLDAEIQAVLREIHLEVTGLETSGDQFRNARRLLNSEKERLENNIDPEWLEVDVAKPVKVCKKILVPIYRHPNFNFIGKVLGPKGATLQTLCKTHKCHIYILGRGSTKDREKEAELLASGDPQHAHFSGPLHVKVETVAPAYIAYGRVAAVIEELSRILQPIHEDTTPAHLKNGSGDGEEKEDEEKKEGGEGGGRGGRGGRGGFRGGFRGGRGGFGGPGGPMGGRGGMGGMGGRGRGGQAAGFRPY | not soluble |
| GFIDTHVHSGHRALHKLLADGGRPDLFGQPYMDVTIARDGTRIKGYPNYLSREEAAVDPGIALHAAFTVAELLRNGVTTFVELGGHVMVQEALWRECERLGVRGYLGAGYDSGRWAADDQGRLRRVPYPDGGDHLFEEAVAFIKRVQAAGNDLVNGILVPREVENCSVDILRRTVQAAQELGVPMATHAGYNVIEFYETVREHRMTPIELLHSVGMLGPRLNIGHANLISDSPRLNYSGGRDLALMGEHRVSISHCPINIVRRARVLDSWKKYREAGVNLTIGSDTYPRDMVMNMRTASYHGKVMSHDLTAASAAEVFEAATLGGARSLGRTDI | not soluble |
| MGSDKIHHHHHHMINYHPDQHLLSLHAKGELPLSMSIAISAHAELCPHCQQQLDQMTIALSEQQFESAVKTQSVDTNDNHQLDALLEQLLNSTLDTLEIEQASTIDTIEDNSVSIKGQHYPLPKVFRKQINASWQGIGKVSRLRLDTGEPQARASLLHIAANGEIPEHTHKGAELTLLLAGEFSDCYNTYKPGDFMLLDKEHQHSPKTLEGCLCYTIVDAPLYFTKGFSKLLNPIGDLLY | not soluble |
| MATPSLTDACVHCGFCLSDCPSYRVLGRETDSPRGRVYLMDSLQQGRIELSDTVVEHFDTCLGCLACTSACPSGVQYDQLIEEMRQRIAQEHRRPWPEAIWRKLLFAFLPLEHHHHHH | soluble |
| MGSDKIHHHHHHMALKEEIYYNSPIFIQNILTSMYGKKLMQERYGPGYEKKLQELRVKDRTVDYRIEQLERLNTFLLFIQEHTPYYRKLFQEHDIRLPFTSLDQLQTIPILEKETLRQQNEAFMSEVDAPVRGRTGGTSGKSLQVAFMREDVQERMAHLDYFKELHGFRSGMRRASFTGRTLTAINQKKPIFWRKNRPLNQLLLSIFHMKEENFPAYIEELNRFRPAALDGTPTAMLEIALYLLKHELRLDFPLVAIFPTSETVTPEMRRLLEEAFQAPVFDQYGSSEGAPIISECRERKLHLHHETGIIEPYGDGGEVVVTCFTTRGTPLVRYRIGDRMTLGQEACTCGLNGPVIESIDGRGTSYIVSEKRGKVFEGDITTIARELPNSVLRLQVEQHELNHVTLRYIPDEQRFVPKHEKILLREMQKLLGSSMKVTLEPVQQMKQEPNGKTLIVKQSMK | not soluble |
| MNYPVNPDLMPALMAVFQHVRTRIQSELDCQRLDLTPPDVHVLKLIDEQRGLNLQDLGRQMCRDKALITRKIRELEGRNLVRRERNPSDQRSFQLFLTDEGLAIHQHAEAIMSRVHDELFAPLTPVEQATLVHLLDQCLAAQPLEDI | soluble |
| ANNLPDTQSSGPAHSKETPALTAVETGATNPLVPSDTVQTRHVIQKRTRSESTVESFFARGACVAIIEVDNDAPTKRASKLFSVWKITYKDTVQLRRKLEFFTYSRFDMEFTFVVTSNYTDANNGHALNQVYQIMYIPPGAPIPGKWNDYTWQTSSNPSVFYTYGAPPARISVPYVGIANAYSHFYDGFAKVPLAGQASTEGDSLYGAASLNDFGSLAVRVVNDHNPTKLTSKIRVYMKPKHVRVWCPRPPRAVPYYGPGVDYKDGLAPLPGKGLTTY | soluble |
| MGSDKIHHHHHHMLANLNQAMDYIEEHLTEEVSFDELAKKTGISVYHFKRTFSFITGMSLAEYIKKRPLAEANLALLAGEKVTDVAFKYGYQSIEGFSRAFRDWSGQAPSEVMKTQIQKTFPKFSFYIDIKGGQSMDVKLIEKPAFQIVGVSQKVPLQYQGENQAIMELAQRITPQQRAEMHTFDDIYPHQVVNASFDFQEGRTTEGGEMTHMIGFATSQENTYEDLEQLSVPAHTWAVFPNEGPFPQTLQETWAKIFSEWLPSSGYQVVAAPEISFTQYQGPAEAKYSEIWLAVTATK | not soluble |
| MTDQGLEGSNPVDLSKHPSGIVPTLQNIVSTVNLDCKLDLKAIALQARNAEYNPKRFAAVIMRIREPKTTALIFASGKMVCTGAKSEDFSKMAARKYARIVQKLGFPAKFKDFKIQNIVGSCDVKFPIRLEGLAYSHAAFSSYEPELFPGLIYRMKVPKIVLLIFVSGKIVITGAKMRDETYKAFENIYPVLSEFRKIQQ | soluble |
| MRYTVALTGGIGSGKSTVADAFADLGITVIDADIIARQMVEPGQPALNAIAEHFGSELIAADGTLRRRALRERIFSHPEEKAWLNALLHPLIQQETQRQFQQATSPYVLWVVPLLVENRLYQKANRVLVVDVTPETQLIRTMQRDDVTREHVEHILAAQATREARLAVADDVIDNNGAPDAIASDVARLHASYLKLASQFVSQEKP | not soluble |
